Measurements taken from patent US20210062263A1, “A CLINICAL […]” (priority 2016, published 2021).
“Also recorded” adds a separate entry of the source.

Assays:
Assay type in all cases: cell-based, human
normal fibroblasts [1] = test: qRT-PCR relative gene expression in normal fibroblasts
Protocol: (§1) Normal and keloid tissue samples were collected from 11 patients and were used to establish primary fibroblast cultures. Using these fibroblasts, qRT-PCR for relative gene expressions and enzyme-linked immunosorbent assay (ELISA) for relative protein expressions were performed. Fibroblasts were also treated with 200 pM activin for 24 hours to examine the effects on fibrosis-related genes.
(§2) Normal and keloid tissue samples were collected from 11 patients and used to establish primary fibroblast cell cultures as described in Example 1. Relative expressions of fibrosis-related genes were examined using qRT-PCR. Protein levels of activin and follistatin, an activin-antagonist, were also measured by ELISA and radioimmunoassay in lysates of dermal fibroblasts. Furthermore, keloid fibroblasts were treated with 1 nM follistatin for 24 hours to examine the effects on fibrosis-related genes.
(§3) Normal and keloid fibroblasts were isolated and cultured from a patient. Relative expressions of fibrosis-related genes were examined using qRT-PCR. Protein levels of activin and follistatin were also measured by ELISA and radioimmunoassay in dermal fibroblasts as described in Example 2. Furthermore, keloid fibroblasts were daily treated with 1 nM follistatin for 1, 3 and 5 days to examine the effects on fibrosis-related genes.
(§4) Normal and keloid fibroblasts were isolated and cultured in vitro using standard fibroblast cell culture protocols. Relative gene expressions were examined using qRT-PCR. Protein levels of activin and follistatin were also measured in dermal fibroblasts by enzyme-linked immunosorbent assay and radioimmunoassay respectively. Cells were also treated with 100 ng/ml follistatin for 5 days to examine the effects on the expression of fibrosis-related genes.
(§5) The upregulation of CTGF by activin A was also confirmed in the multiple patient samples (FIG. 8n).
(§6) To investigate the role of AP1 in keloid pathogenesis, fibroblasts were treated for 3 days with SR11302, an inhibitor of AP1 activity. […] Moreover, in order to examine the effects of FST288, fibroblasts were treated for 3 days or 5 days.

keloid fibroblasts [2] = test: qRT-PCR relative gene expression in keloid fibroblasts
Protocol: as §1, §2, §3, §4, §5, §6

normal fibroblasts [3] = test: Activin A protein in cell lysate and media of normal fibroblasts; settings: after treatment with AP1 inhibitor
Protocol: as §1, §4, §6

keloid fibroblasts [4] = test: Tolerance of keloid fibroblasts in culture (cell death); settings: 3 days
Protocol: as §6

keloid fibroblasts [5] = test: Activin A protein in cell lysate and media of keloid fibroblasts; settings: after treatment with AP1 inhibitor
Protocol: as §1, §4, §6

normal fibroblasts [6] = test: Tolerance of normal fibroblasts in culture (cell death); settings: 3 days
Protocol: as §6

keloid fibroblasts [7] = test: RNA sequencing of keloid fibroblast cultures with/without follistatin; settings: single follistatin treatment
Protocol: RNAseq was performed with/without a single follistatin treatment on normal and keloid fibroblast cultures on day 1 and day 5 (FIG. 7) to compare the extent of gene expression changes in keloid disease.

[8] = SR11302 10 uM and 15 uM, 3 days
[9] = daily 1 nM follistatin, five days

`CC1=C(/C=C/C(=C/C=C/C(C)=C/C(=O)O)c2ccc(C)cc2)C(C)(C)CCC1` [SR11302] was tested, and the CTGF gene expression (normal fibroblasts [1]; [8]) was “significantly decreased”, the INHBA gene expression (normal fibroblasts [1]; [8]) was “significantly decreased” and the CTGF gene expression (keloid fibroblasts [2]; [8]) was “significantly decreased”. The INHBA gene expression (keloid fibroblasts [2]; [8]) was “significantly decreased”, the “activin A protein in cell lysate and media” value (normal fibroblasts [3]) was “significantly decreased” and the “doses resulting in cell death” value (keloid fibroblasts [4]) was “higher than 20 uM”. For the same molecule, the “activin A protein in cell lysate and media” value (keloid fibroblasts [5]) was “significantly decreased” and the “doses resulting in cell death” value (normal fibroblasts [6]) was “higher than 20 uM”.

B1: activin A: dimeric protein of the TGF-β superfamily, added exogenously at 200 pM (protein, UniProt P08476 311-426, looked up)
Inhibin beta A chain: GLECDGKVNICCKKQFFVSFKDIGWNDWIIAPSGYHANYCEGECPSHIAGTSGSSLSFHSTVINHYRMRGHSPFANLKSCCVPTKLRPMSMLYYDDGQNIIKKDIQNMIVEECGCS
modifications: Inhibin beta A chain homodimer
notes: dimeric protein of the TGF-β superfamily, added exogenously at 200 pM
B1 was tested, and the CTGF gene expression (normal fibroblasts [1]; 200 pM activin A, 24 hours) was “significantly upregulated”, the FOSB gene expression (normal fibroblasts [1]; 200 pM activin A, 24 hours) was “significantly upregulated” and the IL6 gene expression (normal fibroblasts [1]; 200 pM activin A, 24 hours) was “significantly upregulated”. For the same molecule, the “INHBA (activin A) gene expression” value (normal fibroblasts [1]; 200 pM activin A, 24 hours) was “significantly upregulated”, the JUNB gene expression (normal fibroblasts [1]; 200 pM activin A, 24 hours) was “significantly upregulated” and the PAI1 gene expression (normal fibroblasts [1]; 200 pM activin A, 24 hours) was “significantly upregulated”. The TGFB2 gene expression (normal fibroblasts [1]; 200 pM activin A, 24 hours) was “significantly upregulated”, the CTGF gene expression (keloid fibroblasts [2]; 200 pM activin A, 24 hours) was “significantly upregulated” and the FOSB gene expression (keloid fibroblasts [2]; 200 pM activin A, 24 hours) was “significantly upregulated”. For the same molecule, the IL6 gene expression (keloid fibroblasts [2]; 200 pM activin A, 24 hours) was “significantly upregulated”, the “INHBA (activin A) gene expression” value (keloid fibroblasts [2]; 200 pM activin A, 24 hours) was “further significant upregulation; also recorded: significantly upregulated” and the JUNB gene expression (keloid fibroblasts [2]; 200 pM activin A, 24 hours) was “significantly upregulated”. For the same molecule, the PAI1 gene expression (keloid fibroblasts [2]; 200 pM activin A, 24 hours) was “significantly upregulated”, the TGFB2 gene expression (keloid fibroblasts [2]; 200 pM activin A, 24 hours) was “significantly upregulated” and the “CTGF expression in fibroblasts from multiple patients” value (keloid fibroblasts [2]; 200 pM activin A, multiple patient samples (normal/keloid not distinguished)) was “upregulation; also recorded: increased”.

B2: follistatin: an activin-antagonist protein; isoform not stated in these examples (protein, UniProt P19883 30-344, looked up)
Follistatin: GNCWLRQAKNGRCQVLYKTELSKEECCSTGRLSTSWTEEDVNDNTLFKWMIFNGGAPNCIPCKETCENVDCGPGKKCRMNKKNKPRCVCAPDCSNITWKGPVCGLDGKTYRNECALLKARCKEQPELEVQYQGRCKKTCRDVFCPGSSTCVVDQTNNAYCVTCNRICPEPASSEQYLCGNDGVTYSSACHLRKATCLLGRSIGLAYEGKCIKAKSCEDIQCTGGKKCLWDFKVGRGRCSLCDELCPDSKSDEPVCASDNATYASECAMKEAACSSGVLLEVKHSGSCNSISEDTEEEEEDEDQDYSFPISSILEW
With B2 the CTGF gene expression (keloid fibroblasts [2]; 1 nM follistatin, 24 hours) was “significantly decreased”, the “activin A gene expression” value (keloid fibroblasts [2]; 1 nM follistatin, 24 hours) was “significantly decreased” and the “CTGF (downstream target of activins) expression” value (keloid fibroblasts [2]; 100 ng/ml follistatin, vs controls) was “declined significantly”. For the same molecule, the “activin A expression of the gene and its protein” value (keloid fibroblasts [2]; after treatment with follistatin (summary of Examples 1 to 3)) was “significant downregulation”, the CTGF gene expression (keloid fibroblasts [2]; [9]) was “significantly decreased” and the “activin A gene expression” value (keloid fibroblasts [2]; [9]) was “significantly decreased”. For the same molecule, the “activin A gene expression” value (keloid fibroblasts [2]; single treatment, 100 ng/ml follistatin) was “significantly decreased”, the “INHBA expression (RNAseq)” value (keloid fibroblasts [7]; 5 days, 100 ng/ml) was “diminished” and the “CTGF expression (RNAseq)” value (keloid fibroblasts [7]; day 5, 100 ng/ml) was “significantly decreased”. The “PAI1 expression (RNAseq)” value (keloid fibroblasts [7]; day 5, 100 ng/ml) was “significantly decreased” and the “other matrix related genes (RNAseq)” value (keloid fibroblasts [7]; day 5, 100 ng/ml) was “downregulated”.
